Source: patent US11788108B2, “CMP-dependent sialidase activity” (Roche Diagnostics Operations, Inc., priority 2014, dated 2023)
One block for each molecule: values may come before it.

Tests used:
[1] = target: T1, Δ89 hST6Gal-I (Homo sapiens, UniProt P15907); assay: Inhibition of sialidase activity of Δ89 hST6Gal-I by CTP; format: biochemical
T1 construct: Erythropoietin signal peptide (Epo) (N, cleaved yes); AP spacer (N, cleaved yes); made in house; host or cells: HEK 293 cells (transient expression, secreted)
T1 sequence (P15907 90-406): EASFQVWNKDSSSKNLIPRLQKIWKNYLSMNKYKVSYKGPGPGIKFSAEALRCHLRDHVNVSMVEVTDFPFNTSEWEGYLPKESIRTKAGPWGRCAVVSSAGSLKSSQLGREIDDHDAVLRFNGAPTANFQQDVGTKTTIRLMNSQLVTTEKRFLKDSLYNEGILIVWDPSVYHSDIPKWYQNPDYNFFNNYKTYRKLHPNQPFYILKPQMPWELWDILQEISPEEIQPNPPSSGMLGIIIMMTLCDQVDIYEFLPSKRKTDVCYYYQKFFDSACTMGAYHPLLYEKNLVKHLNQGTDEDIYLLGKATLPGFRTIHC
Experimental: The compound cytidine-5′-triphosphate (CTP) is a known potent inhibitor of sialyltransferases (Scudder P R & Chantler E N BBA 660 (1981) 136-141). […] In the first phase of the experiment the sialylation of IgG4 MAB by Δ89 hST6Gal-I was performed to achieve a high content of G2+2SA (see Example 10). After 7 h of incubation the G2+2SA content was 94%. Subsequently, CTP was added to inhibit the sialidase activity of Δ89 hST6Gal-I (final concentration of CTP: 0.67 mM). At different times samples were taken and the content of G2+0SA, G2+1SA and G2+2SA was determined by mass spectrometry. […] After 72 h of incubation 73% of G2+2SA were still present.

[2] = target: T2, α-2,6-sialyltransferase from rat liver (Rattus norvegicus, UniProt P13721); conditions: each inhibitor at 0.25 mM; cited from earlier work
T2 construct: host or cells: rat liver
T2 sequence (P13721 1-403): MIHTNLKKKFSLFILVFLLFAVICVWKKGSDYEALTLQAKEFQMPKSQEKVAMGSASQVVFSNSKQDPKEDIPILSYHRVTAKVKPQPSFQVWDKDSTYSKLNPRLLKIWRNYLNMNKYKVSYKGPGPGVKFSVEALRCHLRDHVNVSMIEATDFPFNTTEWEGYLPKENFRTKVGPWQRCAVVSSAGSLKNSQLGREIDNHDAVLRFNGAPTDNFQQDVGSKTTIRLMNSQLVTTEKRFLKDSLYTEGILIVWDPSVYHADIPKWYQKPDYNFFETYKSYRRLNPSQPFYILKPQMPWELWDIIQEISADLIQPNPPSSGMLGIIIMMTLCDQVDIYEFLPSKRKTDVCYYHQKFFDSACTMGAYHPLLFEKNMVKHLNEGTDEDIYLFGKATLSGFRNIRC

[3] = tested on: asialofetuin; assay: Test for sialyltransferase enzymatic activity (transfer of sialic acid from CMP-9-fluoro-NANA to asialofetuin); format: biochemical; conditions: recombinant enzyme purified from HEK cells
Experimental: Asialofetuin (desialylated fetuin, Roche Applied Science) was used as acceptor and CMP-9-fluoro-NANA (CMP-9-fluoresceinyl-NeuAc) was used as donor substrate (Brossmer, R. & Gross H. J. (1994) Meth. Enzymol. 247, 177-193). Enzymatic activity of a sialyltransferase was determined by measuring the transfer of sialic acid from the donor compound to asialofetuin. The reaction mix (35 mM MES, pH 6.0, 0.035% TRITON™ X-100 (C16H26O2), 0.07% BSA) contained 2.5 μg of enzyme sample, 5 μL asialofetuin (20 mg/mL) and 2 μL CMP-9-fluoro-NANA (1.0 mg/mL) in a total volume of 51 μL. The reaction mix was incubated at 37° C. for 30 min. The reaction was stopped by the addition of 10 μL of the inhibitor CTP (10 mM). The reaction mix was loaded onto a PD10 desalting column equilibrated with 0.1 M Tris/HCl, pH 8.5. Fetuin was eluted from the column using the equilibration buffer. The fractions size was 1 mL. The concentration of formed fetuin was determined using a fluorescence spectrophotometer. Excitation wave length was 490 nm, emission was measured at 520 nm. Enzymatic activity was expressed as RFU (relative fluorescence unit). 10,000 RFU/μg is equivalent to a specific activity of 0.0839 nmol/μg×min.

[4] = tested on: IgG1 MAB G2+2SA; assay: Sialidase activity on IgG1 MAB G2+2SA in the presence and absence of CMP; format: biochemical; conditions: for sialidase activity in the presence of CMP: CMP 10-fold molar excess, 37° C., pH 6.5, 125 μg enzyme/1,250 μg IgG1 MAB
Experimental: Cytidine monophosphate (5′-CMP, =CMP) is a product of the reaction catalyzed by sialyltransferase enzymes, generated in the course of the glycosyltransferase reaction from the co-substrate CMP-NANA. With incubation time of a sialylation reaction CMP accumulates in the reaction mixture.
To an amount of 1,250 μg (in 194 μL) highly sialylated IgG1 MAB according to Example 12 with an incubation period for sialylation of 8 h, 125 μg sialyltransferase variant (30 μg/300 μg IgG1 MAB) was added.
Different N-terminally truncated hST6Gal-I enzyme variants were tested for CMP-dependent sialidase activity: • Δ89 hST6Gal-I (Example 9) • Δ108 hST6Gal-I (Example 9) • Δ57 hST3Gal-I (obtained from R&D Systems)
Four different experiments were made using Δ89 hST6Gal-I (16.8 μL with 125 μg), Δ108 hST6Gal-I (17.3 μL with 125 μg), Δ57 hST3Gal-I (20.1 μL with 125 μg) and a negative control (no enzyme, 20.1 μL ultrapure water). The enzymes were tested for sialidase activity in the absence and presence of CMP (10-fold excess based on molarity). The concentrations were as shown as follows:
The samples were incubated at 37° C. in 20 mM sodium citrate, 35 mM Tris pH 6.5. Aliquots were taken as samples after different incubation times, and were analyzed.
To analyze the degree of sialylation of IgG1 MAB in the samples, 124 μL denaturing buffer (6 M Guanidinium chloride in water) and 30 μL TCEP (=tris(2-carboxyethyl)phosphine; 0.1 mM, diluted in denaturing buffer) were added to 76 μL (corresponding to 250 μg IgG1 MAB) and the sample was incubated at 37° C. for 1 h. After that the sample was buffered in electrospray medium (20% ACN (=acetonitrile), 1% FA (=formamide)) using pre-equilibrated ILLUSTRA™ NAP™5-Columns (GE-Healthcare). Subsequently the sample was analyzed by electrospray ionization mass spectrometry and the content of G2+0SA, G2+1SA and G2+2SA N-glycans was determined. A Synapt G2 HDMS device (Waters UK) was used, the software used was MassLynx V 4.1.

[5] = target: T3, CMP-dependent sialidase activity of Δ89 hST6Gal-I (Homo sapiens, UniProt P15907); assay: Sialylation of IgG4 MAB using Δ89 hST6Gal-I in the presence of phosphatase enzymatic activity; format: biochemical; conditions: CMP degraded by dephosphorylating enzymes
T3 construct: Erythropoietin signal peptide (Epo) (N, cleaved yes); AP spacer (N, cleaved yes); made in house; host or cells: HEK 293 cells (transient expression, secreted)
T3 sequence (P15907 90-406): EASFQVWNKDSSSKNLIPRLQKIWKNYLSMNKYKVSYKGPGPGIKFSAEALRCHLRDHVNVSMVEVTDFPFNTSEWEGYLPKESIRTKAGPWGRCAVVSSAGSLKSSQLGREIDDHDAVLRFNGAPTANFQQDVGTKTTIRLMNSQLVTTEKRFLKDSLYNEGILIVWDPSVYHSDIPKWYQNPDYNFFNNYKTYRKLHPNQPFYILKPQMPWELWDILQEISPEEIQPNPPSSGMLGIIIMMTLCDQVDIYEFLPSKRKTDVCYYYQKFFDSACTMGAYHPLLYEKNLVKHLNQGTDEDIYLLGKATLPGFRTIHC
Excerpt: Suppression of CMP-dependent sialidase activity of Δ89 hST6Gal-I was studied by continuous removal of CMP formed during the reaction.
In the experiments the enzymes (i) 5′-nucleotidase (EC 3.1.3.5) having a wide specificity for 5′-nucleotides, and (ii) alkaline phosphatase (EC 3.1.3.1) (both provided by commercial suppliers) were used. The particular 5′-nucleotidase used here is also known as ecto-5′-nucleotidase or CD73 (Cluster of Differentiation 73), in humans encoded by the NT5E gene. Both enzymes dephosphorylate CMP, i.e. catalyze hydrolysis of the phosphoester bond in CMP. In the experiments of this Example the enzymes were used to degrade CMP generated by the sialyltransferase reaction from the co-substrate CMP-NANA.
To 1,000 μg IgG4 MAB (182 μL) 500 μg CMP-NANA (3 mg/mL, 166.7 μL), 100 μg Δ89 hST6Gal-I (13.4 μL, 30 μg/300 μg IgG4 MAB) and different amounts of nucleotidase (Nu) and alkaline phosphatase (AP) were added. As Zn^2+ ions are essential for the activity of AP, these were added to a final concentration of 0.1 mM). The buffer used was 20 mM sodium acetate/Tris, pH 6.5. […]
After addition of the respective amounts of enzymes the samples were incubated at 37° C. […] Then the sample was analyzed by electrospray ionization mass spectrometry, and the content of G2+0SA, G2+1SA and G2+2SA N-glycans was determined. […]

[6] = tested on: IgG4 MAB; assay: Sialylation of humanized monoclonal antibody IgG4 MAB using Δ89 hST6Gal-I, mass spectrometry; format: biochemical
Experimental: A highly galactosylated humanized monoclonal antibody IgG4 MAB was used in sialylation experiments. The reaction mixture contained IgG4 MAB (300 μg in 55 μL 35 mM sodium actetate/Tris buffer pH 7.0), the donor substrate CMP-NANA (150 μg in 50 μL water) and sialyltransferase (30 μg Δ89 hST6Gal-I in 20 mM potassium phosphate, 0.1 M NaCl, pH 6.5). The samples were incubated at 37° C. for a defined time. To stop the reaction the samples were frozen at −20° C. For mass analysis 100 μL denaturing buffer (6 M guanidinium chloride) and 30 μL TCEP (=tris(2-carboxyethyl)phosphine; 0.1 mM, diluted in denaturing buffer) were added to the samples and the samples were incubated at 37° C. for 1 h. The samples were buffered in electrospray medium [20% ACN (=acetonitrile), 1% FA (=formamide)] using pre-equilibrated Illustra™ Nap5-Columns (GE-Healthcare). Samples were analyzed by electrospray ionization mass spectrometry and the content of G2+0SA, G2+1SA and G2+2SA N-glycans was determined. A Micromass Q-Tof Ultima and a Synapt G2 HDMS device (Waters UK) were used, the software used was MassLynx V 4.1. To determine the kinetics of the sialylation the reaction was incubated up to 72 h.

degradation of G2+2SA caused by the sialidase activity ([1]; CTP 0.67 mM, compared to inhibitor-free conditions): significantly reduced | G2+2SA still present ([1]; after 72 h of incubation, CTP final concentration 0.67 mM added after 7 h): 73%
Molecule: Nc1ccn([C@@H]2O[C@H](COP(=O)(O)OP(=O)(O)OP(=O)(O)O)[C@@H](O)[C@H]2O)c(=O)n1 [CTP, cytidine-5′-triphosphate]

Molecule: Nc1ccn([C@@H]2O[C@H](CO)[C@@H](OP(=O)(O)O)[C@H]2O)c(=O)n1 [3′-CMP]
inhibition of α-2,6-sialyltransferase [2]: 39%

Molecule: Nc1ccn([C@@H]2O[C@H](CO)[C@@H](O)[C@H]2OP(=O)(O)O)c(=O)n1 [2′-CMP]
inhibition of α-2,6-sialyltransferase [2]: 40%

B1: Δ108 hST6Gal-I: soluble human β-galactoside-α-2,6-sialyltransferase I variant lacking N-terminal amino acids from position 1 to 108 (protein)
chain: LQKIWKNYLSMNKYKVSYKGPGPGIKFSAEALRCHLRDHVNVSMVEVTDFPFNTSEWEGYLPKESIRTKAGPWGRCAVVSSAGSLKSSQLGREIDDHDAVLRFNGAPTANFQQDVGTKTTIRLMNSQLVTTEKRFLKDSLYNEGILIVWDPSVYHSDIPKWYQNPDYNFFNNYKTYRKLHPNQPFYILKPQMPWELWDILQEISPEEIQPNPPSSGMLGIIIMMTLCDQVDIYEFLPSKRKTDVCYYYQKFFDSACTMGAYHPLLYEKNLVKHLNQGTDEDIYLLGKATLPGFRTIHC
modifications: delta108 truncation variant of hST6Gal-I
specific activity [3]: > 600 RFU/pg | sialidase activity in the presence of CMP [4]: did not show any sialidase activity

degradation of G2+2SA without CMP ([4]; reaction mixture without CMP, incubation for 46 h): no degradation
B2: Δ89 hST6Gal-I: human β-galactoside-α-2,6-sialyltransferase I variant with truncation deletion of the first 89 N-terminal amino acids (protein)
chain: EASFQVWNKDSSSKNLIPRLQKIWKNYLSMNKYKVSYKGPGPGIKFSAEALRCHLRDHVNVSMVEVTDFPFNTSEWEGYLPKESIRTKAGPWGRCAVVSSAGSLKSSQLGREIDDHDAVLRFNGAPTANFQQDVGTKTTIRLMNSQLVTTEKRFLKDSLYNEGILIVWDPSVYHSDIPKWYQNPDYNFFNNYKTYRKLHPNQPFYILKPQMPWELWDILQEISPEEIQPNPPSSGMLGIIIMMTLCDQVDIYEFLPSKRKTDVCYYYQKFFDSACTMGAYHPLLYEKNLVKHLNQGTDEDIYLLGKATLPGFRTIHC
modifications: delta89 truncation variant of hST6Gal-I
notes: human β-galactoside-α-2,6-sialyltransferase I variant with truncation deletion of the first 89 N-terminal amino acids
specific activity [3]: 3.75 nmol/pg/min | sialidase activity in the presence of CMP [4]: showed a CMP-dependent sialidase activity | intrinsic sialidase activity in the absence of CMP [5]: no intrinsic sialidase activity | content of the bi-sialylated form G2+2SA ([6]; after 2 h of incubation, 37° C., 30 μg enzyme/300 μg IgG4 MAB): 88% | G2+2SA content ([6]; after 7 h of incubation, before CTP addition): 94% | G2+1SA content ([6]; after an incubation of 48 h, 37° C.): 71%
